Reference: patent publication US20250043302A1, “MUTATED HYDROXYPHENYLPYRUVATE DIOXYGENASE POLYPEPTIDE, AND CODING GENE AND USE THEREOF” (BEIJING DABEINONG BIOTECHNOLOGY CO., LTD., priority 2021, published 2025)
Positions count from the first letter of the chain named. Numbers in names are those of the source.

B1: AsHPPDm-A111T-F372A-02: nucleotide sequence encoding Avena sativa HPPD with A111T+F372A; vector DBN11781 (nucleic acid)
DNA: ATGCCACCTACTCCAGCTACAGCTACTGGTGCTGCTGCTGCTGCCGTTACTCCTGAGCACGCTGCCAGGTCATTCCCCAGGGTGGTTCGCGTGAACCCCAGATCTGATAGGTTCCCAGTTCTGAGCTTCCACCATGTTGAGCTGTGGTGCGCTGATGCTGCTTCTGCTGCTGGCAGGTTCTCTTTCGCTCTTGGTGCTCCACTCGCTGCTAGATCTGATCTGTCTACAGGAAATAGCGCTCATGCCTCACTCCTGCTTCGCTCAGGTGCTTTGGCCTTCCTCTTCACCGCTCCATATGCTCCCCCACCTCAGGAGGCTGCTACTGCTGCTACTACAGCCTCCATTCCAAGCTTCTCAGCTGATGCCGCTAGAACCTTCGCTGCTGCTCATGGACTTGCCGTGAGGTCTGTTGGTGTTCGCGTGGCTGATGCTGCTGAGGCTTTCAGAGTTTCCGTTGCCGGCGGAGCTAGGCCAGCTTTCGCTCCTGCTGATTTGGGACATGGTTTCGGCCTGGCTGAGGTTGAGCTTTACGGTGACGTGGTTCTCCGCTTCGTGTCTTACCCAGATGAGACTGACCTGCCTTTCCTTCCCGGCTTCGAGAGAGTTTCCTCTCCTGGTGCCGTGGATTACGGCCTGACAAGGTTCGACCACGTGGTTGGAAACGTTCCCGAGATGGCTCCAGTGATCGATTACATGAAGGGCTTCCTTGGATTCCATGAGTTCGCCGAGTTCACTGCTGAGGACGTGGGAACCACTGAGTCCGGTTTGAACTCTGTGGTTCTCGCCAACAATTCTGAGGCTGTTTTGCTCCCTCTGAATGAGCCTGTGCATGGAACCAAGAGGAGAAGCCAGATTCAAACTTACCTGGAGTACCACGGTGGCCCTGGAGTTCAGCATATCGCCCTTGCTTCTAATGATGTGTTGCGCACACTCAGAGAGATGCGCGCCAGAACCCCCATGGGAGGTTTCGAGTTCATGGCCCCACCACAGGCTAAGTACTACGAGGGCGTTAGAAGGATTGCTGGAGACGTGTTGAGCGAGGAGCAGATCAAGGAGTGCCAAGAGCTGGGTGTTCTTGTGGATAGGGATGACCAGGGCGTTCTGCTTCAAATTGCCACTAAGCCAGTGGGCGACCGCCCTACATTCTTCCTTGAGATGATTCAAAGAATCGGCTGCATGGAGAAGGATGAGGTTGGACAGGAGTACCAAAAGGGCGGATGCGGTGGCTTCGGAAAGGGTAACTTCAGCGAGTTGTTCAAGTCAATCGAGGACTACGAGAAGAGCCTCGAGGTGAAGCAGTCAGTGGTTGCCCAAAAGTCCTGA
modifications: AsHPPDm-A111T-F372A-02 Nucleotide Sequence
notes: vector DBN11781
B2: AsHPPDm-A111T-F383W-02: nucleotide sequence encoding Avena sativa HPPD with A111T+F383W; vector DBN11782 (nucleic acid)
DNA: B1 DNA with G1114T, C1115T, T1148G, C1149G
modifications: AsHPPDm-A111T-F383W-02 Nucleotide Sequence
notes: vector DBN11782

Assays:
[1] = test system: Arabidopsis thaliana T1 plants; assay: Isoxaflutole tolerance of transgenic Arabidopsis thaliana T1 plants (spray, bleached leaf area grade, damage score); assay type: in vivo; conditions: Table 11; for Classification and statistics of the grade of pesticide damage Grade 0: number of plants at grade 0; for Classification and statistics of the grade of pesticide damage Grade 1: number of plants at grade 1; for Classification and statistics of the grade of pesticide damage Grade 2: number of plants at grade 2; for Classification and statistics of the grade of pesticide damage Grade 3: number of plants at grade 3; for Scores: pesticide damage score;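 on Scores: Weighted damage index from 0 to 100 where higher means more damage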
Excerpt: T1 transformants were initially selected from the untransformed seeds using a glufosinate selection scheme. The Arabidopsis thaliana T1 plants (AsHPPD-02) into which the AsHPPD-02 nucleotide sequence was introduced, the Arabidopsis thaliana T1 plants (AsHPPDm-F372A-02) into which the AsHPPDm-F372A-02 nucleotide sequence was introduced, the Arabidopsis thaliana T1 plants (AsHPPDm-F383W-02) into which the AsHPPDm-F383W-02 nucleotide sequence was introduced, the Arabidopsis thaliana T1 plants (AsHPPDm-F372A-F383W-02) into which the AsHPPDm-F372A-F383W-02 nucleotide sequence was introduced, the Arabidopsis thaliana T1 plants (DBN11726N) into which the control recombinant expression vector DBN11726N was introduced, and the wild-type Arabidopsis thaliana plants (CK) (18 days after sowing) were sprayed respectively with topramezone at three concentrations (100 g ai/ha (four-fold field concentration, 4×), 200 g ai/ha (eight-fold field concentration, 8×), and 0 g ai/ha (water, 0×)), isoxaflutole at three concentrations (140 g ai/ha (two-fold field concentration, 2×), 280 g ai/ha (four-fold field concentration, 4×), and 0 g ai/ha (water, 0×)), and mesotrione at three concentrations (210 g ai/ha (two-fold field concentration, […]), 420 g ai/ha (four-fold field concentration, 4×), and 0 g ai/ha (water, 0×)), to determine the tolerance of Arabidopsis thaliana to the herbicides. The degree of damage caused by the herbicide was measured for each plant according to the proportion of bleached leaf area (the proportion of bleached leaf area=bleached leaf area/total leaf area×100%) 7 days after spraying (7 DAT): the case where there is basically no bleached phenotype is defined as grade 0, the case where the proportion of bleached leaf area is less than 50% is defined as grade 1, the case where the proportion of bleached leaf area is more than 50% is defined as grade 2, and the case where the proportion of bleached leaf area is 100% grade is defined as grade 3.
According to the method as described above in point 6 of Example 1, the aforementioned Arabidopsis thaliana T1 plants and wild-type Arabidopsis thaliana plants (CK) (18 days after sowing) were sprayed respectively with topramezone at three concentrations (25 g ai/ha (one-fold field concentration, 1×). 100 g ai/ha (four-fold field concentration, 4×), and 0 g ai/ha (water, 0×)), isoxaflutole at three concentrations (35 g ai/ha (half-fold field concentration, 0.5×). 70 g ai/ha (one-fold field concentration, 1×), and 0 g ai/ha (water, 0×)), and mesotrione at three concentrations (52.5 g ai/ha (half-fold field concentration, 0.5×), 105 g ai/ha (one-fold field concentration, 1×), and 0 g ai/ha (water, 0×)) to detect the tolerance of Arabidopsis thaliana to the herbicides.
According to the method as described above in point 6 of Example 1, the aforementioned Arabidopsis thaliana T1 plants and wild-type Arabidopsis thaliana plants (CK) (18 days after sowing) were sprayed with topramezone at three different concentrations (i.e., 100 g ai/ha (four-fold field concentration, 4×), 200 g ai/ha (eight-fold field concentration, 8×) and 0 g ai/ha (water, 0×)), isoxaflutole at three different concentrations (i.e., 140 g ai/ha (two-fold field concentration, 2×), 280 g ai/ha (four-fold field concentration, 4×) and 0 g ai/ha (water, 0×)), and mesotrione at three different concentrations (i.e., 210 g ai/ha (two-fold field concentration, 2×), 420 g ai/ha (four-fold field concentration, 4×) and 0 g ai/ha (water, 0×)) respectively to detect the herbicide tolerance of Arabidopsis thaliana. […]

[2] = test system: Arabidopsis thaliana T1 plants; assay: Mesotrione tolerance of transgenic Arabidopsis thaliana T1 plants (spray, bleached leaf area grade, damage score); assay type: in vivo; design: Scores: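 damage score 0-100 computed as Σ(N×S)/(T×M)×100 over grades 0-3 with higher meaning more damage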; conditions: Table 12; for Classification and statistics of the grade of pesticide damage Grade 0: number of plants at grade 0; for Classification and statistics of the grade of pesticide damage Grade 1: number of plants at grade 1; for Classification and statistics of the grade of pesticide damage Grade 2: number of plants at grade 2; for Classification and statistics of the grade of pesticide damage Grade 3: number of plants at grade 3; for Scores: pesticide damage score
Summary of the method: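 Read-out: per-plant damage grade 0–3 from proportion of bleached leaf area at 7 DAT (1 <50%, 2 >50%, 3 100%). Plants were T1 transformants, glufosinate-selected, plus wild-type CK, sprayed 18 days post-sowing. Rates: topramezone 25–200, isoxaflutole 35–280, mesotrione 52.5–420 g ai/ha.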

| Molecule | Resistance evaluation ([1]; isoxaflutole 140 g ai/ha (2×)) | Classification and statistics of the grade of pesticide damage Grade 0 ([1]; isoxaflutole 140 g ai/ha (2×)) | Classification and statistics of the grade of pesticide damage Grade 1 ([1]; isoxaflutole 140 g ai/ha (2×)) | Classification and statistics of the grade of pesticide damage Grade 2 ([1]; isoxaflutole 140 g ai/ha (2×)) | Classification and statistics of the grade of pesticide damage Grade 3 ([1]; isoxaflutole 140 g ai/ha (2×)) | Scores ([1]; isoxaflutole 140 g ai/ha (2×)) | Resistance evaluation ([1]; isoxaflutole 280 g ai/ha (4×)) | Classification and statistics of the grade of pesticide damage Grade 0 ([1]; isoxaflutole 280 g ai/ha (4×)) | Classification and statistics of the grade of pesticide damage Grade 1 ([1]; isoxaflutole 280 g ai/ha (4×)) | Classification and statistics of the grade of pesticide damage Grade 2 ([1]; isoxaflutole 280 g ai/ha (4×)) | Classification and statistics of the grade of pesticide damage Grade 3 ([1]; isoxaflutole 280 g ai/ha (4×)) | Scores ([1]; isoxaflutole 280 g ai/ha (4×)) | Resistance evaluation ([2]; mesotrione 210 g ai/ha (2×)) | Classification and statistics of the grade of pesticide damage Grade 0 ([2]; mesotrione 210 g ai/ha (2×)) | Classification and statistics of the grade of pesticide damage Grade 1 ([2]; mesotrione 210 g ai/ha (2×)) | Classification and statistics of the grade of pesticide damage Grade 2 ([2]; mesotrione 210 g ai/ha (2×)) | Classification and statistics of the grade of pesticide damage Grade 3 ([2]; mesotrione 210 g ai/ha (2×)) | Scores ([2]; mesotrione 210 g ai/ha (2×)) | Resistance evaluation ([2]; mesotrione 420 g ai/ha (4×)) | Classification and statistics of the grade of pesticide damage Grade 0 ([2]; mesotrione 420 g ai/ha (4×)) | further results |
| --- | --- | --- | --- | --- | --- | --- | --- | --- | --- | --- | --- | --- | --- | --- | --- | --- | --- | --- | --- | --- | --- |
| B1 | Moderately | 5 | 8 | 1 | 2 | 33 | Poorly resistant | 0 | 0 | 16 | 0 | 67 | Moderately | 5 | 8 | 3 | 0 | 29 | Poorly resistant | 0 | Classification and statistics of the grade of pesticide damage Grade 1 ([2]; mesotrione 420 g ai/ha (4×)): 8; Classification and statistics of the grade of pesticide damage Grade 2 ([2]; mesotrione 420 g ai/ha (4×)): 7; Classification and statistics of the grade of pesticide damage Grade 3 ([2]; mesotrione 420 g ai/ha (4×)): 1; Scores ([2]; mesotrione 420 g ai/ha (4×)): 52 |
| B2 | Moderately | 6 | 8 | 2 | 0 | 25 | Poorly resistant | 4 | 4 | 8 | 0 | 42 | Moderately | 4 | 10 | 2 | 0 | 29 | Poorly resistant | 0 | Classification and statistics of the grade of pesticide damage Grade 1 ([2]; mesotrione 420 g ai/ha (4×)): 2; Classification and statistics of the grade of pesticide damage Grade 2 ([2]; mesotrione 420 g ai/ha (4×)): 13; Classification and statistics of the grade of pesticide damage Grade 3 ([2]; mesotrione 420 g ai/ha (4×)): 1; Scores ([2]; mesotrione 420 g ai/ha (4×)): 65 |
